Laboratory results reported in patent US20170240613A1 (REGENTS OF THE UNIVERSITY OF COLORADO A BODY CORPORATE, published 2017).
Each block holds one binder with its values, some of them ahead of it.

What was measured:
[1] = target: T1, human CD112-Fc fusion protein (human; mouse, UniProt Q92692 32-360); assay: SPR, Biacore 3000, CD112 amine-coupled to CM5 chip, CD112R as analyte at 4-333 nM
T1 construct: extracellular domain; Used soluble for cell staining, coated on beads, coated on plates and amine-coupled to a CM5 chip; the Biacore text only says CD112; also called CD112-Ig; CD112 fusion protein; not shown: constant region (Fc) of mouse IgG2a
T1 sequence (looked up): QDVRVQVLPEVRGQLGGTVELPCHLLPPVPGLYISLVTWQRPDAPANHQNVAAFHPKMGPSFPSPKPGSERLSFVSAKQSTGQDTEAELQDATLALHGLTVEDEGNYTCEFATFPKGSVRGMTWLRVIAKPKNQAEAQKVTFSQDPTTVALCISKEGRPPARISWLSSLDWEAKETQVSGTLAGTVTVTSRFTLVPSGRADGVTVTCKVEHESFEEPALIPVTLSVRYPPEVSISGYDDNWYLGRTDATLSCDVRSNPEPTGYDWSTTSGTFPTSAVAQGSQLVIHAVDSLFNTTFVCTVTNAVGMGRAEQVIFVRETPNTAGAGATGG
Text: (§1) FIG. 3D depicts a graph showing BIAcore3000 analysis of CD112R binding to CD112. A series of concentrations of CD112R protein was used to measure the binding kinetics with immobilized CD112.
(§2) All bio sensor experiments were run on a Biacore 3000 instrument (GE Healthcare, Piscataway, N.J., USA). PBS with 0.005% P20 buffer (Gibco) was used as the running buffer for both the immobilization and kinetics experiments. Amine-coupling chemistry was used to immobilize protein FLAG, CD112 and CD155 to a CM5 sensor chip surface at […]. Kinetic experiments were carried out for three different ligands using three different concentration series: 4, 12, 36, 111, 333 nM of CD112R; 9000, 3000, 1000, 333, 111 nM TGIT; 9000, 3000, 1000, 333, 111 nM PVR L3. All samples were diluted in PBS buffer and were injected for 3 minutes across the surface at a flowrate of 20 flL/min and the dissociation of analyte from the surface-bound ligands was monitored for 5 minutes. All analyte concentrations were performed in duplicate and an unmodified reference flow cell was used to correct for instrument drift and/or noise. Buffer blanks were used to double-reference the obtained kinetic data. Raw sensogram data was processed and fit using the Scrubber software package (Version 2.0b, BioLogic Software, Campbell, Australia; http_www_biologic_com_au).

[2] = target: T1, human CD112-Fc fusion protein; assay: Biacore 3000, concentration series of CD112R protein over immobilized CD112
Text: as §1, §2

[3] = target: T2, mouse CD112 on RMA-S cells (RMA-S/mCD112) (mouse, UniProt P32507 32-530); assay: flow cytometry, RMA-S/mCD112 cells against control RMA-S cells
T2 construct: whole, on cells; also called mCD112 transfectants; RMA-S/mCD112 cells
T2 sequence (looked up): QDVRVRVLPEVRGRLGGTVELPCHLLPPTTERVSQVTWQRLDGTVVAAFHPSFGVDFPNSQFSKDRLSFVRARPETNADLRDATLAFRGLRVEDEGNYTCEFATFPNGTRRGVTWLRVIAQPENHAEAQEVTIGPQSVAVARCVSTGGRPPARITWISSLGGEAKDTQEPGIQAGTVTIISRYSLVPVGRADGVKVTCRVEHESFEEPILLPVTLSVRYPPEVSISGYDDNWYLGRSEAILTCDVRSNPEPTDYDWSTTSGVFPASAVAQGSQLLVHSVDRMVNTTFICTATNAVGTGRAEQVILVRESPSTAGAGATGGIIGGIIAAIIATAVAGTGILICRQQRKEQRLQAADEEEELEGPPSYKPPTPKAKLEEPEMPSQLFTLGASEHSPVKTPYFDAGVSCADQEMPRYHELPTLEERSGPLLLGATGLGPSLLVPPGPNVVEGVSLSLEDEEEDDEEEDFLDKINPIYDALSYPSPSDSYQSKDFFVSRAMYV
Text: FIG. 3E depicts graphs showing that the CD112R/CD112 interaction was conserved in mice. RMA-S/mCD112 cells (blue), a mouse lymphoma cell line stably expressing mCD112, or control RMA-S cells (red) were stained with mouse CD112R-Fc, mouse CD226-Fc or mouse TIGIT-Fc respectively.

[4] = target: T3, human CD112R (form used in Example 18 not stated) (human), Q6DKI7; assay: flow cytometry, CD112-Fc staining of human CD112R; panel '+2H6'
T3 chain: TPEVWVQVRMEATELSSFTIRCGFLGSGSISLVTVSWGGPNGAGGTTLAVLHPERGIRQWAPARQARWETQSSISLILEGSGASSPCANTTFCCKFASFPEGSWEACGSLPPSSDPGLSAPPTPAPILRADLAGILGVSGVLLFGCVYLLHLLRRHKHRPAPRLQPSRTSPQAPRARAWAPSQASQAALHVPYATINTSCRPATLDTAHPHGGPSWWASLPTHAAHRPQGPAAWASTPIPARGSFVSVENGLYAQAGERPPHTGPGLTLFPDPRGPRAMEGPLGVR

[5] = target: T3, human CD112R (form used in Example 18 …); assay: flow cytometry, CD112-Fc staining of human CD112R; panel '+4-4'
[6] = target: T3, human CD112R (form used in Example 18 …); assay: flow cytometry, CD112-Fc staining of human CD112R; panel '+4-5'
[7] = target: T3, human CD112R (form used in Example 18 …); assay: flow cytometry, CD112-Fc staining of human CD112R; panel 'None'
[8] = target: T1, human CD112-Fc fusion protein; assay: competition on coated CD112 (beads, flow cytometry): staining by CD112R protein in the presence of rising CD226 protein
Text: FIG. 3F depicts graphs showing the competitive binding assay for CD112 among CD112R, CD226, and TIGIT. Coated CD112 was stained by CD112R protein in the presence of different concentration of TIGIT or CD226 protein; on the other hand, coated CD112 were stained by CD226 protein, in the presence of different concentration of CD112R protein.
CD112 is known to interact with both CD226 and TIGIT, though the latter interaction is relatively weak (Bottino et al., 2003; Stanietsky et al., 2009; Yu et al., 2009). It was investigated whether these two counter receptors compete with CD112R for CD112 interaction. CD112 protein was coated on beads, and stained with CD112R protein in the presence of different concentration of TIGIT or CD226 protein. Inclusion of TIGIT had little effect on disrupting this interaction, while CD226 was a good inhibitor of the CD112-CD112R binding (FIG. 3F). […] Because of the weak interaction between CD112 and TIGIT, as well as limited coated CD112 protein on beads, binding between these two molecules by flow cytometry was not observed. […] This conclusion was further supported by the studies that a CD112 mAb, clone TX31, blocked the binding of CD112 to both CD112R and CD226 (FIG. 4B and FIG. 8).

binding result [3]: no binding
B2: mouse TIGIT-Fc fusion protein (Fc fusion, UniProt P86176 29-148, looked up)
chain: TIDTKRNISAEEGGSVILQCHFSSDTAEVTQVDWKQQDQLLAIYSVDLGWHVASVFSDRVVPGPSLGLTFQSLTMNDTGEYFCTYHTYPGGIYKGRIFLKVQESSDDRNGLAQFQTAPLG
notes: extracellular domain; also called TIGIT protein; not shown: Fc

binding result [8]: binds
B4: human CD226-Fc fusion protein (Fc fusion, UniProt Q15762 19-254, looked up)
chain: EEVLWHTSVPFAENMSLECVYPSMGILTQVEWFKIGTQQDSIAIFSPTHGMVIRKPYAERVYFLNSTMASNNMTLFFRNASEDDVGYYSCSLYTYPQGTWQKVIQVVQSDSFEAAVPSNSHIVSEPGKNVTLTCQPQMTWPVQAVRWEKIQPRQIDLLTYCNLVHGRNFTSKFPRQIVSNCSHGRWSVIVIPDVTVSDSGLYRCYLQASAGENETFVMRLTVAEGKTDNQYTLFVA
notes: extracellular domain; also called CD226 protein; not shown: constant region (Fc) of mouse IgG2a

The next lines start with the binder.

B1: human CD112R-mFc protein (extracellular domain of human CD112R fused to mouse IgG2a constant region) (Fc fusion)
chain: TPEVWVQVRMEATELSSFTIRCGFLGSGSISLVTVSWGGPNGAGGTTLAVLHPERGIRQWAPARQARWETQSSISLILEGSGASSPCANTTFCCKFASFPEGSWEACGSLPPSSDPGLSARSPRGPTIKPCPPCKCPAPNLLGGPSVFIFPPKIKDVLMISLSPIVTCVVVDVSEDDPDVQISWFVNNVEVHTAQTQTHREDYNSTLRVVSALPIQHQDWMSGKEFKCKVNNKDLPAPIERTISKPKGSVRAPQVYVLPPPEEEMTKKQVTLTCMVTDFMPEDIYVEWTNNGKTELNYKNTEPVLDSDGSYFMYSKLRVEKKNWVERNSYSCSVVHEGLHNHHTTKSFSRTPGK
notes: also called CD112R fusion protein; CD112R protein
Kd [1]: 88 nM
Kd [2]: 88.4 nM

B3: human CD112-Fc fusion protein, Q92692 32-360 (Fc fusion, UniProt Q92692 32-360, looked up, not shown: a dimerising Fc or GST)
chain: QDVRVQVLPEVRGQLGGTVELPCHLLPPVPGLYISLVTWQRPDAPANHQNVAAFHPKMGPSFPSPKPGSERLSFVSAKQSTGQDTEAELQDATLALHGLTVEDEGNYTCEFATFPKGSVRGMTWLRVIAKPKNQAEAQKVTFSQDPTTVALCISKEGRPPARISWLSSLDWEAKETQVSGTLAGTVTVTSRFTLVPSGRADGVTVTCKVEHESFEEPALIPVTLSVRYPPEVSISGYDDNWYLGRTDATLSCDVRSNPEPTGYDWSTTSGTFPTSAVAQGSQLVIHAVDSLFNTTFVCTVTNAVGMGRAEQVIFVRETPNTAGAGATGG
1 subset (share of events in the gate drawn over the histogram) [4]: 4.26
1 subset (share of events in the gate drawn over the histogram) [5]: 13.8
1 subset (share of events in the gate drawn over the histogram) [6]: 12.8
1 subset (share of events in the gate drawn over the histogram) [7]: 11.2
